Experimental data: US12679878B2, “CRF2 receptor agonists and their use in therapy” (SANOFI, priority 2020, dated 2026)
Starred links: 1 amine or outer side, 2 acyl side, 3 side chain; linkers in the order of their positions; H or OH if unused. Non-standard residues stand in square brackets, D forms with d. Groups on a side chain read outwards from the residue. No end group written: not given here. *: point of attachment. C18 diacid = O=C(O)CCCCCCCCCCCCCCCCC(=O)*; γGlu = O=C(O)[C@H](CCC(=O)[*:2])N[*:1]; Palmitoyl = CCCCCCCCCCCCCCCC(=O)*; AEEA = NCCOCCOCC(=O)O; Aib = CC(C)(N)C(=O)O

B1: SEQ ID NO: 141 (peptide)
peptide: IVLSLD[dV]PIKLK([AEEA-AEEA-γGlu-C18 diacid])QILLKQARQK[Aib]QRAQAEKNKRILERV-NH2
modifications: N-terminus assumed
SMILES: CC[C@H](C)[C@H](N)C(=O)N[C@H](C(=O)N[C@@H](CC(C)C)C(=O)N[C@@H](CO)C(=O)N[C@@H](CC(C)C)C(=O)N[C@@H](CC(=O)O)C(=O)N[C@@H](C(=O)N1CCC[C@H]1C(=O)N[C@H](C(=O)N[C@@H](CCCCN)C(=O)N[C@@H](CC(C)C)C(=O)N[C@@H](CCCCNC(=O)COCCOCCNC(=O)COCCOCCNC(=O)CC[C@H](NC(=O)CCCCCCCCCCCCCCCCC(=O)O)C(=O)O)C(=O)N[C@@H](CCC(N)=O)C(=O)N[C@H](C(=O)N[C@@H](CC(C)C)C(=O)N[C@@H](CC(C)C)C(=O)N[C@@H](CCCCN)C(=O)N[C@@H](CCC(N)=O)C(=O)N[C@@H](C)C(=O)N[C@@H](CCCNC(=N)N)C(=O)N[C@@H](CCC(N)=O)C(=O)N[C@@H](CCCCN)C(=O)NC(C)(C)C(=O)N[C@@H](CCC(N)=O)C(=O)N[C@@H](CCCNC(=N)N)C(=O)N[C@@H](C)C(=O)N[C@@H](CCC(N)=O)C(=O)N[C@@H](C)C(=O)N[C@@H](CCC(=O)O)C(=O)N[C@@H](CCCCN)C(=O)N[C@@H](CC(N)=O)C(=O)N[C@@H](CCCCN)C(=O)N[C@@H](CCCNC(=N)N)C(=O)N[C@H](C(=O)N[C@@H](CC(C)C)C(=O)N[C@@H](CCC(=O)O)C(=O)N[C@@H](CCCNC(=N)N)C(=O)N[C@H](C(N)=O)C(C)C)[C@@H](C)CC)[C@@H](C)CC)[C@@H](C)CC)C(C)C)C(C)C
B2: SEQ ID NO: 14 (peptide)
peptide: FTLSLDVPTKIK([γGlu-Palmitoyl])QKLLKQEKQRKQKQKAKTNAKILARV-NH2
modifications: N-terminus assumed
SMILES: CCCCCCCCCCCCCCCC(=O)N[C@@H](CCC(=O)NCCCC[C@H](NC(=O)[C@@H](NC(=O)[C@H](CCCCN)NC(=O)[C@@H](NC(=O)[C@@H]1CCCN1C(=O)[C@@H](NC(=O)[C@H](CC(=O)O)NC(=O)[C@H](CC(C)C)NC(=O)[C@H](CO)NC(=O)[C@H](CC(C)C)NC(=O)[C@@H](NC(=O)[C@@H](N)Cc1ccccc1)[C@@H](C)O)C(C)C)[C@@H](C)O)[C@@H](C)CC)C(=O)N[C@@H](CCC(N)=O)C(=O)N[C@@H](CCCCN)C(=O)N[C@@H](CC(C)C)C(=O)N[C@@H](CC(C)C)C(=O)N[C@@H](CCCCN)C(=O)N[C@@H](CCC(N)=O)C(=O)N[C@@H](CCC(=O)O)C(=O)N[C@@H](CCCCN)C(=O)N[C@@H](CCC(N)=O)C(=O)N[C@@H](CCCNC(=N)N)C(=O)N[C@@H](CCCCN)C(=O)N[C@@H](CCC(N)=O)C(=O)N[C@@H](CCCCN)C(=O)N[C@@H](CCC(N)=O)C(=O)N[C@@H](CCCCN)C(=O)N[C@@H](C)C(=O)N[C@@H](CCCCN)C(=O)N[C@H](C(=O)N[C@@H](CC(N)=O)C(=O)N[C@@H](C)C(=O)N[C@@H](CCCCN)C(=O)N[C@H](C(=O)N[C@@H](CC(C)C)C(=O)N[C@@H](C)C(=O)N[C@@H](CCCNC(=N)N)C(=O)N[C@H](C(N)=O)C(C)C)[C@@H](C)CC)[C@@H](C)O)C(=O)O
B3: SEQ ID NO: 138 (peptide)
peptide: IVLSLD[dV]PIKLK([AEEA-AEEA-γGlu-C18 diacid])QILLKQERQKKQREKAEKNKQILAQV-NH2
modifications: N-terminus assumed
SMILES: CC[C@H](C)[C@H](N)C(=O)N[C@H](C(=O)N[C@@H](CC(C)C)C(=O)N[C@@H](CO)C(=O)N[C@@H](CC(C)C)C(=O)N[C@@H](CC(=O)O)C(=O)N[C@@H](C(=O)N1CCC[C@H]1C(=O)N[C@H](C(=O)N[C@@H](CCCCN)C(=O)N[C@@H](CC(C)C)C(=O)N[C@@H](CCCCNC(=O)COCCOCCNC(=O)COCCOCCNC(=O)CC[C@H](NC(=O)CCCCCCCCCCCCCCCCC(=O)O)C(=O)O)C(=O)N[C@@H](CCC(N)=O)C(=O)N[C@H](C(=O)N[C@@H](CC(C)C)C(=O)N[C@@H](CC(C)C)C(=O)N[C@@H](CCCCN)C(=O)N[C@@H](CCC(N)=O)C(=O)N[C@@H](CCC(=O)O)C(=O)N[C@@H](CCCNC(=N)N)C(=O)N[C@@H](CCC(N)=O)C(=O)N[C@@H](CCCCN)C(=O)N[C@@H](CCCCN)C(=O)N[C@@H](CCC(N)=O)C(=O)N[C@@H](CCCNC(=N)N)C(=O)N[C@@H](CCC(=O)O)C(=O)N[C@@H](CCCCN)C(=O)N[C@@H](C)C(=O)N[C@@H](CCC(=O)O)C(=O)N[C@@H](CCCCN)C(=O)N[C@@H](CC(N)=O)C(=O)N[C@@H](CCCCN)C(=O)N[C@@H](CCC(N)=O)C(=O)N[C@H](C(=O)N[C@@H](CC(C)C)C(=O)N[C@@H](C)C(=O)N[C@@H](CCC(N)=O)C(=O)N[C@H](C(N)=O)C(C)C)[C@@H](C)CC)[C@@H](C)CC)[C@@H](C)CC)C(C)C)C(C)C
B4: SEQ ID NO: 140 (peptide)
peptide: IVLSLD[dV]PIKLK([AEEA-AEEA-γGlu-C18 diacid])QILLEQARQK[Aib]QRAQAEKNKRILERV-NH2
modifications: N-terminus assumed
SMILES: CC[C@H](C)[C@H](N)C(=O)N[C@H](C(=O)N[C@@H](CC(C)C)C(=O)N[C@@H](CO)C(=O)N[C@@H](CC(C)C)C(=O)N[C@@H](CC(=O)O)C(=O)N[C@@H](C(=O)N1CCC[C@H]1C(=O)N[C@H](C(=O)N[C@@H](CCCCN)C(=O)N[C@@H](CC(C)C)C(=O)N[C@@H](CCCCNC(=O)COCCOCCNC(=O)COCCOCCNC(=O)CC[C@H](NC(=O)CCCCCCCCCCCCCCCCC(=O)O)C(=O)O)C(=O)N[C@@H](CCC(N)=O)C(=O)N[C@H](C(=O)N[C@@H](CC(C)C)C(=O)N[C@@H](CC(C)C)C(=O)N[C@@H](CCC(=O)O)C(=O)N[C@@H](CCC(N)=O)C(=O)N[C@@H](C)C(=O)N[C@@H](CCCNC(=N)N)C(=O)N[C@@H](CCC(N)=O)C(=O)N[C@@H](CCCCN)C(=O)NC(C)(C)C(=O)N[C@@H](CCC(N)=O)C(=O)N[C@@H](CCCNC(=N)N)C(=O)N[C@@H](C)C(=O)N[C@@H](CCC(N)=O)C(=O)N[C@@H](C)C(=O)N[C@@H](CCC(=O)O)C(=O)N[C@@H](CCCCN)C(=O)N[C@@H](CC(N)=O)C(=O)N[C@@H](CCCCN)C(=O)N[C@@H](CCCNC(=N)N)C(=O)N[C@H](C(=O)N[C@@H](CC(C)C)C(=O)N[C@@H](CCC(=O)O)C(=O)N[C@@H](CCCNC(=N)N)C(=O)N[C@H](C(N)=O)C(C)C)[C@@H](C)CC)[C@@H](C)CC)[C@@H](C)CC)C(C)C)C(C)C
B5: SEQ ID NO: 137 (peptide)
peptide: IVLSLD[dV]PIKLK([AEEA-AEEA-γGlu-C18 diacid])QILLKQERQKKQREQAEKNKQILEQV-NH2
modifications: N-terminus assumed
SMILES: CC[C@H](C)[C@H](N)C(=O)N[C@H](C(=O)N[C@@H](CC(C)C)C(=O)N[C@@H](CO)C(=O)N[C@@H](CC(C)C)C(=O)N[C@@H](CC(=O)O)C(=O)N[C@@H](C(=O)N1CCC[C@H]1C(=O)N[C@H](C(=O)N[C@@H](CCCCN)C(=O)N[C@@H](CC(C)C)C(=O)N[C@@H](CCCCNC(=O)COCCOCCNC(=O)COCCOCCNC(=O)CC[C@H](NC(=O)CCCCCCCCCCCCCCCCC(=O)O)C(=O)O)C(=O)N[C@@H](CCC(N)=O)C(=O)N[C@H](C(=O)N[C@@H](CC(C)C)C(=O)N[C@@H](CC(C)C)C(=O)N[C@@H](CCCCN)C(=O)N[C@@H](CCC(N)=O)C(=O)N[C@@H](CCC(=O)O)C(=O)N[C@@H](CCCNC(=N)N)C(=O)N[C@@H](CCC(N)=O)C(=O)N[C@@H](CCCCN)C(=O)N[C@@H](CCCCN)C(=O)N[C@@H](CCC(N)=O)C(=O)N[C@@H](CCCNC(=N)N)C(=O)N[C@@H](CCC(=O)O)C(=O)N[C@@H](CCC(N)=O)C(=O)N[C@@H](C)C(=O)N[C@@H](CCC(=O)O)C(=O)N[C@@H](CCCCN)C(=O)N[C@@H](CC(N)=O)C(=O)N[C@@H](CCCCN)C(=O)N[C@@H](CCC(N)=O)C(=O)N[C@H](C(=O)N[C@@H](CC(C)C)C(=O)N[C@@H](CCC(=O)O)C(=O)N[C@@H](CCC(N)=O)C(=O)N[C@H](C(N)=O)C(C)C)[C@@H](C)CC)[C@@H](C)CC)[C@@H](C)CC)C(C)C)C(C)C
B6: SEQ ID NO: 139 (peptide)
peptide: IVLSLD[dV]PIKLK([AEEA-AEEA-γGlu-C18 diacid])QILLKQERQKKQRQQAEKNKQILAQV-NH2
modifications: N-terminus assumed
SMILES: CC[C@H](C)[C@H](N)C(=O)N[C@H](C(=O)N[C@@H](CC(C)C)C(=O)N[C@@H](CO)C(=O)N[C@@H](CC(C)C)C(=O)N[C@@H](CC(=O)O)C(=O)N[C@@H](C(=O)N1CCC[C@H]1C(=O)N[C@H](C(=O)N[C@@H](CCCCN)C(=O)N[C@@H](CC(C)C)C(=O)N[C@@H](CCCCNC(=O)COCCOCCNC(=O)COCCOCCNC(=O)CC[C@H](NC(=O)CCCCCCCCCCCCCCCCC(=O)O)C(=O)O)C(=O)N[C@@H](CCC(N)=O)C(=O)N[C@H](C(=O)N[C@@H](CC(C)C)C(=O)N[C@@H](CC(C)C)C(=O)N[C@@H](CCCCN)C(=O)N[C@@H](CCC(N)=O)C(=O)N[C@@H](CCC(=O)O)C(=O)N[C@@H](CCCNC(=N)N)C(=O)N[C@@H](CCC(N)=O)C(=O)N[C@@H](CCCCN)C(=O)N[C@@H](CCCCN)C(=O)N[C@@H](CCC(N)=O)C(=O)N[C@@H](CCCNC(=N)N)C(=O)N[C@@H](CCC(N)=O)C(=O)N[C@@H](CCC(N)=O)C(=O)N[C@@H](C)C(=O)N[C@@H](CCC(=O)O)C(=O)N[C@@H](CCCCN)C(=O)N[C@@H](CC(N)=O)C(=O)N[C@@H](CCCCN)C(=O)N[C@@H](CCC(N)=O)C(=O)N[C@H](C(=O)N[C@@H](CC(C)C)C(=O)N[C@@H](C)C(=O)N[C@@H](CCC(N)=O)C(=O)N[C@H](C(N)=O)C(C)C)[C@@H](C)CC)[C@@H](C)CC)[C@@H](C)CC)C(C)C)C(C)C

Biological target: human corticotropin-releasing factor 2α (CRF2 α receptor) (human), Q13324
Sequence (Q13324 20-411): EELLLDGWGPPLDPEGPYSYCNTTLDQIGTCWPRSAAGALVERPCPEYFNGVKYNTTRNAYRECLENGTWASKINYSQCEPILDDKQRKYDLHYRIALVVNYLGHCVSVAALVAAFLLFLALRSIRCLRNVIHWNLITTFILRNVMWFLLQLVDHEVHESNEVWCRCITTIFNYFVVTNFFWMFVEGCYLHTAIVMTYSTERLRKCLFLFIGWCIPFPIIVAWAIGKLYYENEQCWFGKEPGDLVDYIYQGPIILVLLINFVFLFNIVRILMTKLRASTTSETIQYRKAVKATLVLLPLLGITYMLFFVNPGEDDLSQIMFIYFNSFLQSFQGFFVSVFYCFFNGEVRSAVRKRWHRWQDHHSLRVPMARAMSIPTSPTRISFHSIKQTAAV
Assay: cell-based or functional assay

Row | Binder | EC50 [nM], 0% HSA [nM] | EC50 [nM], 0.1% HSA [nM]
1 | B1 | 0.03 | 0.97
2 | B2 | 0.18 | 
3 | B3 | 0.06 | 3.12
4 | B4 | 0.04 | 1.27
5 | B5 | 0.04 | 1.78
6 | B6 | 0.03 | 1.31
